Tests used:
O3-bH = target: T1, O3-bH; assay: two-hybrid library CCNG1;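 further: natural log of median RNA to DNA barcode read ratio; higher means stronger binding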
T1 chain: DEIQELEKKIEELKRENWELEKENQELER

O5-bH = target: T2, O5-bH; assay: two-hybrid library CCNG1;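 further: natural log of median RNA to DNA barcode read ratio; higher means stronger binding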
T2 chain: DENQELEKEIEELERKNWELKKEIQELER

O7-bH = target: T3, O7-bH; assay: two-hybrid library CCNG1;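 further: natural log of median RNA to DNA barcode read ratio; higher means stronger binding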
T3 chain: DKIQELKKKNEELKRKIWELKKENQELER

O8-bH = target: T4, O8-bH; assay: two-hybrid library CCNG1;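 further: natural log of median RNA to DNA barcode read ratio; higher means stronger binding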
T4 chain: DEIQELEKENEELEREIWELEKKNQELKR

O6-bH = target: T5, O6-bH; assay: two-hybrid library CCNG1
T5 chain: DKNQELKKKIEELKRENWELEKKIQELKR

O9-bH = target: T6, O9-bH; assay: two-hybrid library CCNG1
T6 chain: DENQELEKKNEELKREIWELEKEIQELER

O4-bH = target: T7, O4-bH; assay: two-hybrid library CCNG1
T7 chain: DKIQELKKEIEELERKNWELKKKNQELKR

4H797-bA = target: T8, 4H797-bA; assay: two-hybrid library CCNG1
T8 chain: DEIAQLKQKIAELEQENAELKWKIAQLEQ

4H2697-bA = target: T9, 4H2697-bA; assay: two-hybrid library CCNG1
T9 chain: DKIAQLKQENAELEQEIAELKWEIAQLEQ

4H3189-bA = target: T10, 4H3189-bA; assay: two-hybrid library CCNG1
T10 chain: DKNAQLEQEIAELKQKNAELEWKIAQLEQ

4H331-bA = target: T11, 4H331-bA; assay: two-hybrid library CCNG1
T11 chain: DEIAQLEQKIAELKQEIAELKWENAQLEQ

4H967-bA = target: T12, 4H967-bA; assay: two-hybrid library CCNG1
T12 chain: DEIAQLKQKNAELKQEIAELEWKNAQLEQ

4H883-bA = target: T13, 4H883-bA; assay: two-hybrid library CCNG1
T13 chain: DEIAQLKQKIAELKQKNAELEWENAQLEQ

4H4001-bA = target: T14, 4H4001-bA; assay: two-hybrid library CCNG1
T14 chain: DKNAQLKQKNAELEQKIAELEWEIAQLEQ

4H3782-bA = target: T15, 4H3782-bA; assay: two-hybrid library CCNG1
T15 chain: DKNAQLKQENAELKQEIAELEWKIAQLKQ

4H568-bA = target: T16, 4H568-bA; assay: two-hybrid library CCNG1
T16 chain: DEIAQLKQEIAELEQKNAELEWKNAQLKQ

4H3606-bA = target: T17, 4H3606-bA; assay: two-hybrid library CCNG1
T17 chain: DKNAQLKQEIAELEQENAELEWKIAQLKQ

4H918-bA = target: T18, 4H918-bA; assay: two-hybrid library CCNG1
T18 chain: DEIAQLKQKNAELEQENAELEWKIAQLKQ

4H687-bA = target: T19, 4H687-bA; assay: two-hybrid library CCNG1
T19 chain: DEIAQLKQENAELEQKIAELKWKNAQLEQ

4H370-bA = target: T20, 4H370-bA; assay: two-hybrid library CCNG1
T20 chain: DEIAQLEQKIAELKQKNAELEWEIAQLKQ

4H3041-bH = target: T21, 4H3041-bH; assay: two-hybrid library CCNG1
T21 chain: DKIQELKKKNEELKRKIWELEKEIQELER

4H607-bA = target: T22, 4H607-bA; assay: two-hybrid library CCNG1
T22 chain: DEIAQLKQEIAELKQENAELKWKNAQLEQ

4H3843-bA = target: T23, 4H3843-bA; assay: two-hybrid library CCNG1
T23 chain: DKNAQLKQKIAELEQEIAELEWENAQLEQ

4H462-bA = target: T24, 4H462-bA; assay: two-hybrid library CCNG1
T24 chain: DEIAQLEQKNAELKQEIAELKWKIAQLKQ

4H953-bA = target: T25, 4H953-bA; assay: two-hybrid library CCNG1
T25 chain: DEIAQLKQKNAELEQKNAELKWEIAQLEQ

4H72-bA = target: T26, 4H72-bA; assay: two-hybrid library CCNG1
T26 chain: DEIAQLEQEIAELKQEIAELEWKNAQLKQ

O8-bP = target: T27, O8-bP; assay: two-hybrid library CCNG1
T27 chain: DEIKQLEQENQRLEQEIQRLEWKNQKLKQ

APC3265-AA = target: T28, APC3265-AA; assay: two-hybrid library CCmax; conditions: mean of both orientations
T28 chain: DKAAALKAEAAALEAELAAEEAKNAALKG

APC4100-AA = target: T29, APC4100-AA; assay: two-hybrid library CCmax; conditions: mean of both orientations
T29 chain: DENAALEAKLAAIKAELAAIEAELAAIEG

APC2556-AA = target: T30, APC2556-AA; assay: two-hybrid library CCmax
T30 chain: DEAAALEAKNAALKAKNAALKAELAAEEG

APC2981-AA = target: T31, APC2981-AA; assay: two-hybrid library CCmax; conditions: mean of both orientations
T31 chain: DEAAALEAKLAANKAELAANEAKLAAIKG

APC9141-AA = target: T32, APC9141-AA; assay: two-hybrid library CCmax; conditions: mean of both orientations
T32 chain: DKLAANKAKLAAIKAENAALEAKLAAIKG

APC5009-AA = target: T33, APC5009-AA; assay: two-hybrid library CCmax; conditions: mean of both orientations
T33 chain: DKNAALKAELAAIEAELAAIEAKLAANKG

APC2724-AA = target: T34, APC2724-AA; assay: two-hybrid library CCmax; conditions: mean of both orientations
T34 chain: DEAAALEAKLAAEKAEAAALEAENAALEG

APC3323-AA = target: T35, APC3323-AA; assay: two-hybrid library CCmax; conditions: mean of both orientations
T35 chain: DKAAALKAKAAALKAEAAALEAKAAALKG

APC3881-AA = target: T36, APC3881-AA; assay: two-hybrid library CCmax; conditions: mean of both orientations
T36 chain: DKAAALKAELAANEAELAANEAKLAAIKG

APC2811-AA = target: T37, APC2811-AA; assay: two-hybrid library CCmax; conditions: mean of both orientations
T37 chain: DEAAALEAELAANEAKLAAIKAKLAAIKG

APC8401-AA = target: T38, APC8401-AA; assay: two-hybrid library CCmax; conditions: mean of both orientations
T38 chain: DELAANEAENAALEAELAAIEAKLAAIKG

APC3354-AA = target: T39, APC3354-AA; assay: two-hybrid library CCmax; conditions: mean of both orientations
T39 chain: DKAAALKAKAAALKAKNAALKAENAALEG

APC5531-AA = target: T40, APC5531-AA; assay: two-hybrid library CCmax; conditions: mean of both orientations
T40 chain: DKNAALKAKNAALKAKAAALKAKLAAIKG

APC4336-AA = target: T41, APC4336-AA; assay: two-hybrid library CCmax; conditions: mean of both orientations
T41 chain: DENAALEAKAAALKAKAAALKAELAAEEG

APC9182-AA = target: T42, APC9182-AA; assay: two-hybrid library CCmax; conditions: mean of both orientations
T42 chain: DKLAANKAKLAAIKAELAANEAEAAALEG

APC9291-AA = target: T43, APC9291-AA; assay: two-hybrid library CCmax; conditions: mean of both orientations
T43 chain: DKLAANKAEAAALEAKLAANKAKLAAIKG

APC6088-AA = target: T44, APC6088-AA; assay: two-hybrid library CCmax; conditions: mean of both orientations
T44 chain: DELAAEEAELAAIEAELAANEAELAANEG

APC8516-AA = target: T45, APC8516-AA; assay: two-hybrid library CCmax; conditions: mean of both orientations
T45 chain: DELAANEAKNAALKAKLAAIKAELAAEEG

APC7524-AA = target: T46, APC7524-AA; assay: two-hybrid library CCmax; conditions: mean of both orientations
T46 chain: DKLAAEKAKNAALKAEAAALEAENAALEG

APC542-AA = target: T47, APC542-AA; assay: two-hybrid library CCmax; conditions: mean of both orientations
T47 chain: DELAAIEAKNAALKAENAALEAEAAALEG

APC9806-AA = target: T48, APC9806-AA; assay: two-hybrid library CCmax; conditions: mean of both orientations
T48 chain: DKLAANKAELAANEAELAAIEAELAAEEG

4H470-bN = target: T49, 4H470-bN; assay: two-hybrid library CCNG1
T49 chain: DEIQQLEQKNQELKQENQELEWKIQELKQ

4H570-bN = target: T50, 4H570-bN; assay: two-hybrid library CCNG1
T50 chain: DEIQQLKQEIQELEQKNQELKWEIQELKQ

4H3414-bN = target: T51, 4H3414-bN; assay: two-hybrid library CCNG1
T51 chain: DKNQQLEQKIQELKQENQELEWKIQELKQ

4H3974-bN = target: T52, 4H3974-bN; assay: two-hybrid library CCNG1
T52 chain: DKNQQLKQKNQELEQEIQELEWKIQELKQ

4H3631-bN = target: T53, 4H3631-bN; assay: two-hybrid library CCNG1
T53 chain: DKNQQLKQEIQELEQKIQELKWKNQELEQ

4H3638-bN = target: T54, 4H3638-bN; assay: two-hybrid library CCNG1
T54 chain: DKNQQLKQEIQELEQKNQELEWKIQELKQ

4H850-bN = target: T55, 4H850-bN; assay: two-hybrid library CCNG1
T55 chain: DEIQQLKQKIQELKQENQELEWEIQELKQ

4H619-bN = target: T56, 4H619-bN; assay: two-hybrid library CCNG1
T56 chain: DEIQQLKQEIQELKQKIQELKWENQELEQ

4H3817-bN = target: T57, 4H3817-bN; assay: two-hybrid library CCNG1
T57 chain: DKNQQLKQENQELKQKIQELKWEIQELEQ

4H3129-bN = target: T58, 4H3129-bN; assay: two-hybrid library CCNG1
T58 chain: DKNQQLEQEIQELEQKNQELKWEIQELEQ

4H3172-bN = target: T59, 4H3172-bN; assay: two-hybrid library CCNG1
T59 chain: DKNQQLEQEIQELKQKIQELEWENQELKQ

4H906-bN = target: T60, 4H906-bN; assay: two-hybrid library CCNG1
T60 chain: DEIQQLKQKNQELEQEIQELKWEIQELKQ

4H584-bN = target: T61, 4H584-bN; assay: two-hybrid library CCNG1
T61 chain: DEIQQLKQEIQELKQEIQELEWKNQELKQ

Binder: DEIQELEKKIEELKRENWELEKENQELER [O3-bH]
- interaction score (O3-bH): -0.176
- interaction score (O5-bH): -0.92
- interaction score (O7-bH): -0.247
- interaction score (O8-bH): 0.212
- interaction score (O6-bH): -0.104
- interaction score (O9-bH): -0.716
- interaction score (O4-bH): 2.01

Binder: DKIAQLKQENAELEQEIAELKWEIAQLEQ [4H2697-bA]
- interaction score (4H797-bA): -0.734
- interaction score (4H2697-bA): -0.377
- interaction score (4H3189-bA): -1.34
- interaction score (4H331-bA): -1.52
- interaction score (4H967-bA): -0.359
- interaction score (4H883-bA): -1.53
- interaction score (4H4001-bA): -0.951
- interaction score (4H3782-bA): 0.993
- interaction score (4H568-bA): -1.82
- interaction score (4H3606-bA): -1.7
- interaction score (4H918-bA): -0.926
- interaction score (4H687-bA): -1.08
- interaction score (4H370-bA): -1.13
- interaction score (4H3041-bH): 1.02
- interaction score (4H607-bA): -1.17
- interaction score (4H3843-bA): -0.367
- interaction score (4H462-bA): 2.04
- interaction score (4H953-bA): -1.44
- interaction score (4H72-bA): -1.03

Binder: DENQELEKKNEELKRKIWELKKKIQELKR [O2-bH]
- interaction score (O3-bH): 0.993
- interaction score (O5-bH): -1.53
- interaction score (O7-bH): -0.662
- interaction score (O8-bH): 0.211
- interaction score (O6-bH): 0.712
- interaction score (O8-bP): -0.645
- interaction score (O9-bH): 0.854
- interaction score (O4-bH): -0.611

Binder: DEAAALEAKNAALKAKNAALKAELAAEEG [APC2556-AA]
- interaction score (APC3265-AA): -1.69
- interaction score (APC4100-AA): -2.2
- interaction score (APC2556-AA): -1.78
- interaction score (APC2981-AA): -1.98
- interaction score (APC9141-AA): -1.94
- interaction score (APC5009-AA): -1.65
- interaction score (APC2724-AA): -1.65
- interaction score (APC3323-AA): -1.82
- interaction score (APC3881-AA): -1.61
- interaction score (APC2811-AA): -1.73
- interaction score (APC8401-AA): -1.48
- interaction score (APC3354-AA): -1.9
- interaction score (APC5531-AA): -1.7
- interaction score (APC4336-AA): -1.77
- interaction score (APC9182-AA): -1.74
- interaction score (APC9291-AA): -1.79
- interaction score (APC6088-AA): -1.75
- interaction score (APC8516-AA): -2.01
- interaction score (APC7524-AA): -2.09
- interaction score (APC542-AA): -1.72
- interaction score (APC9806-AA): -2.15

Binder: DEIQQLEQKNQELKQENQELEWKIQELKQ [4H470-bN]
- interaction score (4H470-bN): -0.484

Binder: DKNQQLEQEIQELEQKNQELKWEIQELEQ [4H3129-bN]
- interaction score (4H570-bN): -0.835
- interaction score (4H3414-bN): 1.09
- interaction score (4H3974-bN): -0.744
- interaction score (4H3631-bN): -1.47
- interaction score (4H3638-bN): -1.26
- interaction score (4H850-bN): -1.41
- interaction score (4H619-bN): -0.774
- interaction score (4H3817-bN): -1.45
- interaction score (4H3129-bN): -0.749
- interaction score (4H3172-bN): -0.806
- interaction score (4H906-bN): -1.2
- interaction score (4H584-bN): -1.09

Reference: paper PMC10397247
